Tests used:
[1] = target: T1, human CD22-ECD-His protein (human, UniProt P20273 20-687); assay: ELISA, Ab 10.00 nM
T1 construct: Made in house in HEK293E; also called hCD22-ECD-His; recombinant human CD22-ECD His protein; not shown: His tag
T1 sequence: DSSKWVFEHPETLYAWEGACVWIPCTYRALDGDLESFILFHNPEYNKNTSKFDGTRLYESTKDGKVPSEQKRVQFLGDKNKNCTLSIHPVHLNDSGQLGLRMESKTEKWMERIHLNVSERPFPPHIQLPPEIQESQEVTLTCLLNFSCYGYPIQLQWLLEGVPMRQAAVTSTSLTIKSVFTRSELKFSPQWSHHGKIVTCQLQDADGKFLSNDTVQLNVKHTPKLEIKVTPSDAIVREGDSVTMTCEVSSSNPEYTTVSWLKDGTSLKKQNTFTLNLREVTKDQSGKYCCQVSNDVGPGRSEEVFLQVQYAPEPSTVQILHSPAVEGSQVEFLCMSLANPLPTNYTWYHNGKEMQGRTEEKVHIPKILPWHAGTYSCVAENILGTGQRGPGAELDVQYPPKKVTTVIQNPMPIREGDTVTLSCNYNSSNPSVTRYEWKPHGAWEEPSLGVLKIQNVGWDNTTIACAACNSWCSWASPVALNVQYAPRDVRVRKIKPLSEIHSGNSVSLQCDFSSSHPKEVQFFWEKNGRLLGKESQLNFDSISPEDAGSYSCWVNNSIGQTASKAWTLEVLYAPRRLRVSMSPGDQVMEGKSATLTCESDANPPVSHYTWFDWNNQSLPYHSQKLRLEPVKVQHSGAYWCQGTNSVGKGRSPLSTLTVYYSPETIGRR
How it was run: (§1)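 Human CD22-ECD-His is adsorbed overnight at 4 °C (2 μg/mL) and blocked with 2% BSA in PBS for 2 h. Chimeric antibody binding proceeds 2 h at 37 °C, followed by HRP-labeled secondary antibody under identical conditions and TMB detection.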

[2] = target: T1, human CD22-ECD-His protein; assay: ELISA, Ab 0.0001 nM
How it was run: as §1

human CD22 domain5-7-His = target: T2, human CD22 domain5-7-His (human, UniProt P20273 414-687); assay: ELISA, human CD22 domain5-7-His coated
T2 construct: also called hCD22 domain5-7-His; not shown: His tag
T2 sequence: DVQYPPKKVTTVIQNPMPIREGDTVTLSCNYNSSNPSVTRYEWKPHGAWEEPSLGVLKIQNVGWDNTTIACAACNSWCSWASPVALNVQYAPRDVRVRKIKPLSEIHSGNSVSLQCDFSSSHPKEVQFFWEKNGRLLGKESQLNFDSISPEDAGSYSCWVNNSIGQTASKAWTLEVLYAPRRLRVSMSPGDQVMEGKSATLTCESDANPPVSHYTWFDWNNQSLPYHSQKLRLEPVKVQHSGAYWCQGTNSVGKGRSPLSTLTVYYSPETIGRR

[3] = target: T1, human CD22-ECD-His protein; assay: ELISA, Ab 0.00001 nM
How it was run: as §1

[4] = target: T1, human CD22-ECD-His protein; assay: ELISA, Ab 0.01 nM
How it was run: as §1

| Binder | OD450 [1] [OD450] | OD450 [2] [OD450] | binding result (human CD22 domain5-7-His) | OD450 [3] [OD450] | OD450 [4] [OD450] | EC50 (read off the curve) (human CD22 domain5-7-His) [nM] |
| --- | --- | --- | --- | --- | --- | --- |
| F1.216.2 (antibody, human IgG1, kappa, V domains shown, Human-murine chimeric IgG1, kappa) VH: QVQLQQSGPEVVRPGASVKISCKASGYAFSSSWMNWMKQRPGKALEWIGRIYPGDGDTNYSGEFKVKATLTADKSSSTAYMQLSSLTSEDSAVYFCAREGSYYSNPWYFDYWGQGTTLTVSS VL: DVLVTQTPLSLPVSLGDQASISCRSSQSIVQSNGDTYLEWYLQKPGQSPKLLIYKVSNRFSGVPDRFSGSGSGTDFTLKISRVEAEDLGVYYCFQGSHVPFTFGSGTKLEIKR | 2.53 | 0.45 | no binding (tested: 100 nM) | 0.2 | 2.48 |  |
| F1.200.11 (antibody, human IgG1, kappa, V domains shown, Human-murine chimeric IgG1, kappa) VH: QNQLVQSGPELKKPGETVKISCKASGYTFTTAGMQWVQKMPGKGFKWIGWINTLSGEPKYAEDFKGRFAFSLETSATTAYLQISNLKNEDTATYFCARAYYSNLYWYFDVWGTGTTVTVSS VL: DIVMTQSQKFMSTTVGDRVTITCKASQNVVTAVAWYQQKPGQSPKVLIYSASNRYSGVPDRFTGSGSGTDFTLTISNMHSEDLANYFCHQYSSYPFTFGSGTKLEIKR | 2.33 | 0.51 |  | 0.33 | 2 | ~0.03 |
| F1.17.1 (antibody, human IgG1, kappa, V domains shown, Human-murine chimeric IgG1, kappa) VH: QVQLKESGPGLVAPSQSLSITCTVSGFSLSRYTVHWVRQPPGKGLEWLGMIWGGGSTDYNSALKSRLSISKDNSKSQVFLKMNSLQTDDTAMYYCARPHDFDAGGFAYWGQGTLVTVSA VL: QIVLTQSPAILSTSPGEKVTMTCSASSRVNYMYWYQQKPGSSPRLLIYDTSNLASGVPVRFSGSGSGTSYSLTISRMEAEDAATYYCQQWTSYPLTFGAGTKLELKR | 2.21 | 0.2 | no binding (tested: 100 nM) | 0.11 | 1.85 |  |
| F1.257.3 (antibody, human IgG1, kappa, V domains shown, Human-murine chimeric IgG1, kappa) VH: QVQLQQSGPELARPGASVKLSCKASGYTFTSYGISWVKQRTGQDLEWIGEIYPKLGTTYYNEKFKDKATLTTDRSSSTAYMALRSLTSEDSAVYFCACPHYYATRGGDYWGQGTTLTVSS VL: EIVLTQSPATLSVTPGDSVTFSCRASQSISNHLHWYQQKSHESPRLLIRYASQSISGIPSRFSGSGSGTDFTLSLSSVETEDFGVYFCQQSHSWPYTFGGGTKLEIAR | 2.64 | 0.28 | no binding (tested: 100 nM) | 0.2 | 1.66 |  |
| HA22-hIgG1 (antibody, V domains shown) VH: EVQLVESGGGLVKPGGSLKLSCAASGFAFSIYDMSWVRQTPEKCLEWVAYISSGGGTTYYPDTVKGRFTISRDNAKNTLYLQMSSLKSEDTAMYYCARHSGYGTHWGVLFAYWGQGTLVTVSA VL: DIQMTQTTSSLSASLGDRVTISCRASQDISNYLNWYQQKPDGTVKLLIYYTSILHSGVPSRFSGSGSGTDYSLTISNLEQEDFATYFCQQGNTLPWTFGCGTKLEIKR | 2.61 | 0.33 | no binding (tested: 100 nM) | 0.19 | 2.12 |  |
| F1.120.15 (antibody, human IgG1, kappa, V domains shown, Human-murine chimeric IgG1, kappa) VH: QVQLQQSGPELVKPGASVKISCKASGNAFSNSWMNWVKQRPGKGLEWIGRVYSEDGDTQYNGKFRDKATLTADRSTSTAYMQLSSLTSEDSAVYFCARWLIYYGTYGAMDYWGQGTSVTVSS VL: DIQMTQTTSSLSASLGDRVTISCRASQDINNYLNWYHQKPDGTVKLLIYFTSRPYSGVPSRFSGSGSGTDYSLTISNLEQEDIATYFCQQGNTLPWTFGGGTKLEIKR | 2.61 | 0.42 | no binding (tested: 100 nM) | 0.12 | 2.28 |  |
| F2.205.9 (antibody, human IgG1, lambda, V domains shown, Human-murine chimeric IgG1, lambda) VH: QVTLKESGPGILQPSQTLSLTCSFSGFSLSTSGMGVGWIRQPSGKGLEWLAHIWWDDDEYYNPALKSRLTISKDTSKNQVFLKIANVDTADTATYYCARISIPYGYYDWFFDVWGTGTTVTVSA VL: QAVVTQESALTTSPGETVTLTCRSSTGAVTTRNYANWVQEKPDHLFTGLIGGTNNRAPGVPARFSGSLIGDKAALTITGAQTEDEAIYFCALWYSNHFIFGSGTKVTVLG | 2.11 | 0.24 | no binding (tested: 100 nM) | 0.19 | 1.48 |  |
| F1.280.1 (antibody, human IgG1, kappa, V domains shown, Human-murine chimeric IgG1, kappa) VH: QIQLVQSGPELKKPGETVKISCKASGYTFTTYGMSWVKQTPGKGLTWMGWINTDSGVPTYADDFKRRFAFSLEASATTAYLQINNLKNEDTATYFCARGGPDYWGQGTTLTVSS VL: DILLTQSPATLSVTPGETVSLSCRASQSIYKNLHWYHQKSHRSPRLLIKYASDSISGIPSRFTGSGSGTNFTLSINSVKPEDEGIYYCLQGYIVPLTFGAGTKLELKR | 2.3 | 0.24 | no binding (tested: 100 nM) | 0.13 | 1.92 |  |
| F2.180.16 (antibody, human IgG1, lambda, V domains shown, Human-murine chimeric IgG1, lambda) VH: EVKLVESGGGLVLPGGSLKISCAASGFTFSDYYMYWIRQTPDKRLEWVAYISNTGYSTFYPDSVKGRFTVSRDNAKNTLYLQMSRLQSEDTAMYYCARHGILYAMDYWGQGTSVTVSS VL: QPVLTQSSSASFSLGASAKLTCTLSSQYSTYTIGWYQQQPLKPPKYVMELKHDGSRHTGDGIPDRFSGSSSGADRYLSISNIQPEDEATYICGVGDTIKEQFMYVFGGGTKVTVLG | 2.08 | 0.31 |  | 0.21 | 1.55 |  |
| F1.245.2 (antibody, human IgG1, kappa, V domains shown, Human-murine chimeric IgG1, kappa) VH: EVQLQQSGAELVKPGASVKLSCTGSGFNIKDYYIHWVKQRTEQGLEWMGRIDPEDGETEYAPKFQDEATITSDTSSNTAYLQLSSLTYEDTAVYYCAREAAGYFYRGSSYGYFDVWGTGTTVTVSS VL: DFQMTQTTSFLSASLGDRVTISCSASQDISNYLNWYQQKPDGTVKLLIYYTSSLHSGVPSRFSGSGSGTDYSLTISNLEPEDIATYYCQQYSMLPYTFGGGTKLEMER | 2.54 | 0.44 | no binding (tested: 100 nM) | 0.22 | 2.3 |  |
| F2.55.1 (antibody, human IgG1, lambda, V domains shown, Human-murine chimeric IgG1, lambda) VH: QVTLKESGPGILQPSQTLSLTCSFSGFSLSTFPLGVGWIRQPSGKGLEWLAHVWWNDDDYYNPALKSRLTISKDTSNTRVFLSVASVDTAETATYYCARLNWDRWYFDVWGTGTTVTVSS VL: QLVLTQSSSASFSLGASAKLTCTLSSQHSAYTVEWYQQQPLKPPKYVMELKKDGSHSTGDGIPDRFSGSSSGADRYLSISNIQPEDEAIYICGVGDTVKEQFVFGGGTKVTVLG | 2.16 | 0.23 | no binding (tested: 100 nM) | 0.16 | 1.3 |  |
| F1.224.1 (antibody, human IgG1, kappa, V domains shown, Human-murine chimeric IgG1, kappa) VH: EVLLHQSGPELVKPGASVKISCKASGYTFTDFNMDWVRQRHGQSLEWIGDVNPNNGGTIYNQKFKGKATLTVDKSSSTVYMDLRSLTSDDTAVYYCVRLGTSDYGEAWFISWGQGTVVTVSA VL: DIVLTQSPASLAVSLGQRATISCRASQSVSTPRYSFMHWYQQKPGQPPKLLIKYASNLESGFPARFTGSGSGTDFTLNIHPVEEEDTAAYYCQQSWAIPWTFGGGTKLEIKR | 2.43 | 0.34 | no binding (tested: 100 nM) | 0.17 | 2.21 |  |
| F1.105.11 (antibody, human IgG1, kappa, V domains shown, Human-murine chimeric IgG1, kappa) VH: EVQLQQSGPVLVKPGASVKMSCKASGYTFSDYFMNWVKQSHGKSLEWIGIINSYSGGTSYNQKFKGKATLTVDKSSSTAYMELNSLTSEDSAVYYCARWMDYWGQGTSVTVSS VL: DVQITQSPSYLAASPGETITINCRTSESISKHLAWYQEKPGKTNKLLIYSGSTLQSGIPSRFSGSGSGTDFTLTISSLEPEDFAMYYCQQHNEYPWTFGGGTKLEIKR | 2.68 | 0.14 |  | 0.08 | 1.93 | ~0.1 |
